One variant from paper PMC12173945, “Import mechanism of peroxisomal proteins with an N-terminal signal sequence” (Nature Cell Biology, 2025) can be followed below.

B1: GST-tagged wild-type yeast PEX39 (GST–PEX39) [yeast] / yeast PEX7 [yeast (S. cerevisiae)] (parent complex)
chain 1: MAAGGELSYEELLDHILNNKPIPNIVEVPNVTLDEGLASTPSLRPRPRPWEGQLQHQSHQGSLDKPNISLDIDQESLEGMTSLTRLSECYDIQSKLQINDSDNDNDDNNNDNNKGDGNDDDNNTVTANPTAR
chain 2: MLRYHMQGFSGYGVQYSPFFDNRLAVAAGSNFGLVGNGKLFILEIDRSGRIVEVNSFLTQDCLFDLAWNESHENQVLVAQGDGTLRLFDTTFKEFPIAIFKEHEREVFSCNWNLVNRQNFLSSSWDGSIKIWSPLRKQSLMTLTPRPLEITKMVDPLNAIILKKKSFTGISKNRNCVYQAQFSPHDQNLVLSCSGNSYASLFDIRLPSGKNQNNFLVHSGLEALTCDFNKYRPYVVATGGVDNAIRIWDIRMLNKNESATIKRTVPGQLHNSSCINEIPNAHGLAIRKVTWSPHHSNILMSASYDMTCRIWRDLSNDGAKETYKTNSTDATKGSIFNFTQHSEFVFGADWSLWGKPGYVASTAWDGNLFVWNGLG

The variants in the experiment derive from B1. As to the kind of experiment: bead sedimentation (GST pull-down depletion) assay, SDS-PAGE with Coomassie quantification of PEX7 left in the supernatant; 1 µM yeast PEX7; varying GST-PEX39 concentrations; 1 h; 25 °C; parent: 0.6 nM.
For chain 1 MAAGGELSAEEAADHAANNKPIPNIVEVPNVTLDEGLASTPSLRPRPRPWEGQLQHQSHQGSLDKPNISLDIDQESLEGMTSLTRLSECYDIQSKLQINDSDNDNDDNNNDNNKGDGNDDDNNTVTANPTAR, the screen value was found to be 610 nM.
